B1: Double-stranded RNA-specific adenosine deaminase, residues 296 to 358; numbered along this chain, P55265 (parent)
chain: MAEIKEKICDYLFNVSDSSALNLAKNIGLTKARDINAVLIDMERQGDVYRQGTTPPIWHLTDK

Variants of: B1
Assay: abundance fitness (aPCA) (normalised: wild type 0, dead -1); higher = more abundant; growth selection in yeast, the domain comes from the species named
Conditions: Homo sapiens

Abundance fitness, by site and new letter:
D34: M -0.333, H -0.578, C -0.978, I -0.422, W -0.984, L -0.444
I27: Y -0.944
A37: T -0.173, N -0.247, G -0.332, W -0.453, M -0.386, C -0.417, D -0.101, E -0.024, H 0.039, R -0.054, S -0.025, L -0.392, P -0.145, Q -0.11, Y -0.457
A32: Q -0.034, K -0.37, L 0.25, N -0.232, E 0.159, F -0.091, S -0.103, R -0.485, G -0.091, C -0.121, P -0.162, I 0.076, T -0.018, Y -0.088, V 0.108, H -0.204, M 0.088
R33: F 0.19, T 0.263, C 0.157, H 0.094, N 0.195, P -0.272, S 0.342, G 0.207, K 0.056, A 0.365, L -0.028, E 0.564, I 0.262, Y 0.185, V 0.327, D 0.417
T30: G -0.054, C -0.002, H -0.252, M -0.204, N 0.127, I -0.299, V -0.201, Q -0.021, Y 0.141, F -0.246, D 0.413, L -0.312, E 0.361, P -0.199, S 0.107, A 0.128, R -0.352
D47: G -0.881, E 0.35, C -0.096, H -0.123, F -0.177, K 0.024, A -0.117, L 0.297
N36: V -0.428, W -0.154, L -0.282, D 0.131, A -0.497, F -0.455, P -0.49, R -0.38, M -0.184, G -0.366, S -0.202, I -0.438, Y -0.232, C -0.397, K -0.098, E 0.406, T -0.011, H 0.081, Q -0.156
I40: T -0.065, D -0.093, A 0.083, P -0.387, G -0.265, M 0.122, N 0.075, S 0.117, K -0.025, H -0.218, C -0.153, Y 0.043, W -0.388, F -0.165, L 0.128, V -0.049, Q 0.159, R -0.054
Q45: I -0.495, K -0.492, T -0.097, H -0.024, F -0.729, C -0.053, V -0.075, Y -0.637, R -0.33, L -0.524, P -0.912, E 0.022, S 0.022, D 0.17, N 0.033, A 0.145, G -0.778
I35: F -0.681, M -0.523, A -0.326, H -0.556, P -0.257, G -0.627, S -0.343, D -0.225, C -0.348, V -0.034, L -0.279, Q -0.348, Y -0.743, W -1.1, T -0.217, K -0.323
G46: I -1.03, A -0.844, Y -1.06, W -1.15, F -1.05, P -0.778, Q -0.652, L -0.974, E -0.66, R -0.902, N -0.827, V -0.613, C -0.998, K -0.448, M -0.498, S -0.618, T -0.856

Reference: the Human Domainome abundance scans (Beltran et al. 2025)
